Source: publication PMC8690919 (Theranostics, 2022)

B1: FD-11A Fab (Fab, V domains shown)
VH: EVQLVESGGGVVQPGRSLRLSCAASGFTFSSYGMHWVRQAPGKGLEWVAVIWYDGSNKYYADSVKGRFTISRDNSKNTLYLQMNSLRAEDTAVYYCAKGPDILTGYYNYYYYGMDVWGQGTMVTVSS
VL: QSVLTQPPSVSGAPGQRVTISCTGSSSNIGAGYDVHWYQQLPGTAPKLLIYGNSNRPSGVPDRFSGSKSGTSASLAITGLQAEDEADYYCQSYDSSLSGFYVVFGGGTKLTVL
B2: FI-3A Fab (Fab, V domains shown)
VH: EVQLLESGGGLIQPGGSLRLSCAASGFTVSSNYMSWVRQAPGKGLEWVSVIYSGGSTYYADSVKGRFTISRDNSKNTLYLQMNSLRAEDTAVYYCARDHVRPGMNIWGQGTMVTVSS
VL: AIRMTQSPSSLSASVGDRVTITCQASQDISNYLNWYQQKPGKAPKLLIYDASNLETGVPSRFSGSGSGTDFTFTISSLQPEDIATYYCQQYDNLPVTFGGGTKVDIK
B3: FD-5D Fab (Fab, V domains shown)
VH: EVQLVESGGGLVQPGGSLRLSCAASGFTFSSYSMNWVRQAPGKGLEWVSYISSSSSTIYYADSVKGRFTISRDNAKNSLYLQMNSLRAEDTAVYYCASPGGITAAGTSVLFGYYGMDVWGQGTTVTVSS
VL: not shown

target: T1, SARS-CoV-2 receptor-binding domain (RBD), His-tagged (SARS-CoV-2, UniProt P0DTC2); test: crystal structure; settings: both partners purified
T1 construct: also called viral RBD; His-tagged RBD

Q: Does B1 bind?
A: binds

Q: Does B2 bind?
A: binds

Q: Does B3 bind?
A: binds
